Key:
Murine CD73 ECD = target: T1, Murine CD73 ECD (murine, UniProt Q61503 29-551, limits assumed); test: SPR (ProteOn), antibody captured by anti-human Fc, CD73 ECD in mobile phase
T1 construct: extracellular domain; In-house recombinant ECD; also called murine CD73 extracellular domain; muCD73
T1 sequence (looked up): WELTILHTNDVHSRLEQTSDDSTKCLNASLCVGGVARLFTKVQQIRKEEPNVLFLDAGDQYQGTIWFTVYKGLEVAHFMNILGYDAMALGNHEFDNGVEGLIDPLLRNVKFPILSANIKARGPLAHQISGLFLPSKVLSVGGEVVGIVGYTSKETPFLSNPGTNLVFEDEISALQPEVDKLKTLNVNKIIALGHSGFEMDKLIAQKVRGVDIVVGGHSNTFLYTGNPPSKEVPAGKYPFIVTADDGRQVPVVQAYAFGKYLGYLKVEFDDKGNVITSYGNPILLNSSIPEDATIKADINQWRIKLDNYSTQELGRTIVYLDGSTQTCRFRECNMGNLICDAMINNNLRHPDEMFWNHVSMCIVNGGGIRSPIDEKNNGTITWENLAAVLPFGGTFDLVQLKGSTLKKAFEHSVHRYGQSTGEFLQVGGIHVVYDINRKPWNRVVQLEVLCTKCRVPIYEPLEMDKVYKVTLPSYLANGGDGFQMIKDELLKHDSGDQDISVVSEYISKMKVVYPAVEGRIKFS
From the text: (§1) A ProteOn XPR36 instrument was used to characterize binding of MEDI9447 to human, murine, and cynomolgus CD73 ECD. MEDI9447 was affinity-captured using an anti-human Fc antibody. CD73 ECD was in the mobile phase. The association and dissociation of CD73 to MEDI9447 could be accurately described with the Langmuir 1: 1 model.

Cynomolgus CD73 ECD = target: T2, Cynomolgus CD73 ECD (cynomolgus, UniProt A0A2K5V5U7 27-549); test: as above
T2 construct: extracellular domain; also called cyno CD73
T2 sequence: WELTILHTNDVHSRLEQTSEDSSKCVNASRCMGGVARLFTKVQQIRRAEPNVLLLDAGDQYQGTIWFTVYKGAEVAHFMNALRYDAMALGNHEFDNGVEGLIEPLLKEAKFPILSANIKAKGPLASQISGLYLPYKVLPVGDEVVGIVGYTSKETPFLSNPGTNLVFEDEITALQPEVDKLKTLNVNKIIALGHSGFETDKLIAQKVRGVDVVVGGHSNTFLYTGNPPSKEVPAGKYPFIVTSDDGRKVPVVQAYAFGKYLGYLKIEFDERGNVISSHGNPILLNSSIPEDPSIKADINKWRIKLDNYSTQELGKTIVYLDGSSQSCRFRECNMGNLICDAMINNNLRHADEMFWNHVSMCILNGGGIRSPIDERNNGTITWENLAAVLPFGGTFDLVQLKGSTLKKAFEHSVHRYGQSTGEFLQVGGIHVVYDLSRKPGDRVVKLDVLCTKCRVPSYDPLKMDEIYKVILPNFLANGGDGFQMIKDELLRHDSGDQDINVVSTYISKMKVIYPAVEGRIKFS
From the text: as §1

[1] = target: T3, CD73 construct with chicken N- and C-terminal domain sequence with human V144 and N185 knocked in (chicken; human); test: SPR (ProteOn), CD73 variant immobilized
T3 chain: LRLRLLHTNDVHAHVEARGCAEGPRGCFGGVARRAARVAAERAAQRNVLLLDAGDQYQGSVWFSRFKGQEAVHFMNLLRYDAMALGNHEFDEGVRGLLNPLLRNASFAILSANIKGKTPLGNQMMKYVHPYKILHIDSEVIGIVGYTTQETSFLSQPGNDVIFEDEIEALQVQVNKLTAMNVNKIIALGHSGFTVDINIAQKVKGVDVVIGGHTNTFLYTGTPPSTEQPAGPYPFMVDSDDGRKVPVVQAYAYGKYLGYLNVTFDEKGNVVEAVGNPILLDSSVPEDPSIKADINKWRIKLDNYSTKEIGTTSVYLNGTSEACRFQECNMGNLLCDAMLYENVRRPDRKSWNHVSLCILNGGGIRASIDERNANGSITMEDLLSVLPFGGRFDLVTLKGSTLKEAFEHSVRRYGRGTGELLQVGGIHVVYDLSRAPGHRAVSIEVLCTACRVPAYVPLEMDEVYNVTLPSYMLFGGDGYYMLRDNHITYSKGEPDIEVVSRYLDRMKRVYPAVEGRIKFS
Procedure: Binding of MEDI9447 to wild-type and mutant CD73 proteins was measured by surface plasmon resonance (SPR) using a ProteOn instrument (BioRad). CD73 crude cell supernatant protein samples were diluted to 3 µg/ml in PBS, 0.005% Tween-20, pH 7.4 (BioRad) and immobilized to ~400 RU on a HTG tris-NTA sensor chip (BioRad) pre-activated with 10 mM NiSO₄, 10 mM MES, pH 6.0 (BioRad). An equivalently diluted crude cell supernatant sample from non-transfected cells was included as a reference channel control. Sensorgrams were recorded by flowing two-fold dilutions of MEDI9447 prepared in PBS, 0.005% Tween-20, pH 7.4, ranging from 5 nM to 0.31 nM. […] Antibody binding was measured at a flow rate of 100 µL/min with a 3 min association phase and 20 min dissociation phase. The sensor chip surface was regenerated between each run by an 800 s injection of 300 mM EDTA, pH 8.5 (BioRad) at a flow rate of 30 µL/min. Binding kinetics were analyzed using the ProteOn data analysis software. Double referencing was performed and, unless noted otherwise, a 1:1 Langmuir binding model was utilized to fit the data. Some CD73 variants containing mutations within the amino acid region 171-188 fit poorly to a 1:1 model (i.e., Chi² values >10% of Rmax). Where noted, these variants were fit with a heterogenous antigen (2:1) model. […]

B1: MEDI9447 (antibody, human IgG1, lambda, V domains shown)
VH: EVQLLESGGGLVQPGGSLRLSCAASGFTFSSYAYSWVRQAPGKGLEWVSAISGSGGRTYYADSVKGRFTISRDNSKNTLYLQMNSLRAEDTAVYYCARLGYGRVDEWGRGTLVTVSS
VL: QSVLTQPPSASGTPGQRVTISCSGSLSNIGRNPVNWYQQLPGTAPKLLIYLDNLRLSGVPDRFSGSKSGTSASLAISGLQSEDEADYYCATWDDSHPGWTFGGGTKLTVLG
notes: Human IgG1-TM (L234F, L235E, P331S), lambda light chain; also called clone 10.3 antibody; 73combo3
- koff (Murine CD73 ECD): 2.32e-06 s⁻¹
- kon (Murine CD73 ECD): 2.41e+06 M⁻¹ s⁻¹
- Kd (Cynomolgus CD73 ECD): 6.5 pM
- koff (Cynomolgus CD73 ECD): 1.76e-05 s⁻¹
- kon (Cynomolgus CD73 ECD): 2.71e+06 M⁻¹ s⁻¹
- Kd [1]: 79 pM
